The record followed here is IntAct's records for PubMed 22878415.

The labels stand for the following.
B1: SUMO-specific isopeptidase USPL1 (Homo sapiens), Q5W0Q7 (parent)
chain: MMDSPKIGNGLPVIGPGTDIGISSLHMVGYLGKNFDSAKVPSDEYCPACREKGKLKALKTYRISFQESIFLCEDLQCIYPLGSKSLNNLISPDLEECHTPHKPQKRKSLESSYKDSLLLANSKKTRNYIAIDGGKVLNSKHNGEVYDETSSNLPDSSGQQNPIRTADSLERNEILEADTVDMATTKDPATVDVSGTGRPSPQNEGCTSKLEMPLESKCTSFPQALCVQWKNAYALCWLDCILSALVHSEELKNTVTGLCSKEESIFWRLLTKYNQANTLLYTSQLSGVKDGDCKKLTSEIFAEIETCLNEVRDEIFISLQPQLRCTLGDMESPVFAFPLLLKLETHIEKLFLYSFSWDFECSQCGHQYQNRHMKSLVTFTNVIPEWHPLNAAHFGPCNNCNSKSQIRKMVLEKVSPIFMLHFVEGLPQNDLQHYAFHFEGCLYQITSVIQYRANNHFITWILDADGSWLECDDLKGPCSERHKKFEVPASEIHIVIWERKISQVTDKEAACLPLKKTNDQHALSNEKPVSLTSCSVGDAASAETASVTHPKDISVAPRTLSQDTAVTHGDHLLSGPKGLVDNILPLTLEETIQKTASVSQLNSEAFLLENKPVAENTGILKTNTLLSQESLMASSVSAPCNEKLIQDQFVDISFPSQVVNTNMQSVQLNTEDTVNTKSVNNTDATGLIQGVKSVEIEKDAQLKQFLTPKTEQLKPERVTSQVSNLKKKETTADSQTTTSKSLQNQSLKENQKKPFVGSWVKGLISRGASFMPLCVSAHNRNTITDLQPSVKGVNNFGGFKTKGINQKASHVSKKARKSASKPPPISKPPAGPPSSNGTAAHPHAHAASEVLEKSGSTSCGAQLNHSSYGNGISSANHEDLVEGQIHKLRLKLRKKLKAEKKKLAALMSSPQSRTVRSENLEQVPQDGSPNDCESIEDLLNELPYPIDIASESACTTVPGVSLYSSQTHEEILAELLSPTPVSTELSENGEGDFRYLGMGDSHIPPPVPSEFNDVSQNTHLRQDHNYCSPTKKNPCEVQPDSLTNNACVRTLNLESPMKTDIFDEFFSSSALNALANDTLDLPHFDEYLFENY

In the first experiment the parent is B1. Conditions: with sumo3_human SUMO3, P55854.
Chain of sumo3_human SUMO3, P55854 (P55854 whole entry): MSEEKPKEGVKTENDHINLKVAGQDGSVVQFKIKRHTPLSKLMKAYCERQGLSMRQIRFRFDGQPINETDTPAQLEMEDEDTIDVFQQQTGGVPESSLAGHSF
Regarding H421A, the “effect of a mutation on the interaction” value was “decreasing interaction”.

In another experiment the parent is B1. Conditions: with sumo3_human SUMO3, P55854. The source holds these as a separate data set.
With I494A, the “effect of a mutation on the interaction” value is “decreasing interaction”. Still for that read-out and setting: then V495A, with “decreasing interaction”.

Variants of B1 are the subject of the next experiment. Particulars: with sumo3_human SUMO3, P55854. This is another data set of the same source.
Consider I494V, for which the “effect of a mutation on the interaction” value is on record as “disrupting interaction”. As to V495A, the “effect of a mutation on the interaction” value is reported as “disrupting interaction”.

In a further experiment the parent is B1. Conditions: with sumo3_human SUMO3, P55854. The source holds these as a separate data set.
W237F: the “effect of a mutation on the interaction” value is given as “decreasing interaction”.

In a further experiment the parent is B1. Particulars: with sumo3_human SUMO3, P55854. This is another data set of the same source.
As for W237F, the “effect of a mutation on the interaction” value is “disrupting interaction”.

The variants in the next experiment derive from B1. Particulars: with sumo3_human SUMO3, P55854. This is another data set of the same source.
On to L341A, for which the “effect of a mutation on the interaction” value is reported as “decreasing interaction”. Still for that read-out and setting: then L340A, with “decreasing interaction”.

In the next experiment the parent is B1. Conditions: with sumo3_human SUMO3, P55854. The source holds these as a separate data set.
L341A: the “effect of a mutation on the interaction” value is recorded as “disrupting interaction”.

Regarding L340A, the “effect of a mutation on the interaction” value was “disrupting interaction”.

Variants of B1 are the subject of a further experiment. Particulars: with sumo3_human SUMO3, P55854. This is another data set of the same source.
Consider E331A, for which the “effect of a mutation on the interaction” value is “decreasing interaction”.

A further experiment covers variants of B1. Particulars: with sumo3_human SUMO3, P55854. The source holds these as a separate data set.
On to W229L, for which the “effect of a mutation on the interaction” value is “decreasing interaction”.

A further experiment covers variants of B1. Particulars: with sumo3_human SUMO3, P55854. This is another data set of the same source.
As to W229L, the “effect of a mutation on the interaction” value is “disrupting interaction”.
